From the supplement of paper PMC7877785
± gives the uncertainty stated by the source.

Assay: self-splicing fitness, log relative to wild type (ln ratio); higher = more splicing; Tetrahymena group I intron in knt gene, E. coli kanamycin selection, DiMSum; sequences stand for … in CUCUCU…GGAGGGAAAAGUUAUCAGGCAUGCACCUGGUAGCUAGUCUUUAAACCAAUAGAUUGCAUCGGUUUAAAAGGCAAGACCGUCAAAUUGCGGGAAAGGGGUCAACAGCCGUUCAGUACCAAGUCUCAGGGGAAACUUUGAGAUGGCCUUGCAAAGGGUAUGGUAAUAAGCUGACGGACAUGGUCCUAACCACGCAGCCAAGUCCUAAGUCAACAGAUCUUCUGUUGAUAUGGAUGCAGUUCACAGACUAAAUGUCGGUCGGGGAAGAUGUAUUCUUCUCAUAAGAUAUAGUCGGACCUCUCCUUAAUGGGAGCUAGCGGAUGAAGUGAUGCAACACUGGAGCCGCUGGGAACUAAUUUGUAUGCGAAAGUAUAUUGAUUAGUUUUGGAGUACUCGUGGUCG
Summary of the method: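 Six replicate transformations of E. coli BL21(DE3) with a pET-22b(+) library were grown overnight at 37°C or 30°C. The library randomised all eight P1ex-region intron nucleotides, the intron lying in the knt kanamycin-resistance gene, and plates were LB agar with or without 25 μg/mL kanamycin plus 100 μg/mL carbenicillin, 50 μM IPTG and 0.2% rhamnose. Pooled colonies were amplicon-sequenced on an Illumina HiSeq 2500, and fitness is the DiMSum error-weighted combination of wild-type-normalised replicate fold changes, kanamycin versus none.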

Sequence	self-splicing fitness (ln) (30 °C)	self-splicing fitness (ln) (37 °C)
CCAGAGCAAUAUUACGGGUC	-3.22 ± 0.43	-1.53 ± 0.28
CCAGAGCAAUAUUACGGUAC	-3.29 ± 0.17	-1.52 ± 0.26
CCAGAGCAAUAUUACGUAGA	-1.88 ± 0.12	-2.08 ± 0.23
CCAGAGCAAUAUUACGUGAU	-3.93 ± 0.22	-2.67 ± 0.28
CCAGAGCAAUAUUACGUGCC	-3.42 ± 0.38	-2.76 ± 0.32
CCAGAGCAAUAUUACGUUGU	-3.81 ± 0.2	-3 ± 0.26
CCAUAGCAAUAUUACGACGG	-3.41 ± 0.14	-1.67 ± 0.13
CCAUAGCAAUAUUACGACGU	-3.3 ± 0.35	-2.13 ± 0.23
CCAUAGCAAUAUUACGACUU	-2.46 ± 0.17	-3.03 ± 0.32
CCAUAGCAAUAUUACGAGCU	-3.04 ± 0.36	-2.9 ± 0.47
CCAUAGCAAUAUUACGAGGC	-3.03 ± 0.15	-3.27 ± 0.21
CCAUAGCAAUAUUACGCAAG	-2.84 ± 0.17	-0.562 ± 0.13
CCAUAGCAAUAUUACGCAGC		-3.34 ± 0.42
CCAUAGCAAUAUUACGCCAC		-1.75 ± 0.49
CCAUAGCAAUAUUACGCCAG	-1.94 ± 0.14	-0.423 ± 0.14
CCAUAGCAAUAUUACGCCAU	-4.18 ± 0.31	-2.41 ± 0.25
CCAUAGCAAUAUUACGCCUC	-3.21 ± 0.4	-1.74 ± 0.29
CCAUAGCAAUAUUACGCCUU	-3.13 ± 0.22	-3.02 ± 0.22
CCAUAGCAAUAUUACGCGUA	-3.19 ± 0.4	-2.75 ± 0.41
CCAUAGCAAUAUUACGCUCA	-3.11 ± 0.18	-2.16 ± 0.25
CCAUAGCAAUAUUACGGACU	-3.84 ± 0.33	-1.85 ± 0.29
CCAUAGCAAUAUUACGGCCC	-1.72 ± 0.22	

Sequence	self-splicing fitness (ln) (30 °C)	self-splicing fitness (ln) (37 °C)
CCAUAGCAAUAUUACGGCCG	-0.548 ± 0.098	-0.739 ± 0.12
CCAUAGCAAUAUUACGGCUC	-2.85 ± 0.36	-2.59 ± 0.45
CCAUAGCAAUAUUACGGGCA	-3.32 ± 0.26	-2.95 ± 0.29
CCAUAGCAAUAUUACGGGGG	-3.01 ± 0.16	-3.36 ± 0.31
CCAUAGCAAUAUUACGUAGG	-2.29 ± 0.078	-1.37 ± 0.094
CCAUAGCAAUAUUACGUCGA	-3.03 ± 0.28	-2.2 ± 0.27
CCCAAGCAAUAUUACGAGAU	-2.91 ± 0.14	-3.31 ± 0.21
CCCAAGCAAUAUUACGAGUU	-3.89 ± 0.14	-2.68 ± 0.14
CCCAAGCAAUAUUACGCCAU	-3.28 ± 0.22	-2.5 ± 0.23
CCCAAGCAAUAUUACGCCCU	-3.14 ± 0.43	
CCCAAGCAAUAUUACGCGAA	-3.55 ± 0.15	-2.63 ± 0.17
CCCAAGCAAUAUUACGCGCA	-4.14 ± 0.35	-2.72 ± 0.21
CCCAAGCAAUAUUACGCGCU	-3.79 ± 0.34	-1.91 ± 0.25
CCCAAGCAAUAUUACGCUAG	-2.63 ± 0.19	-2.72 ± 0.31
CCCAAGCAAUAUUACGCUGC	-2.44 ± 0.2	-2.43 ± 0.41
CCCAAGCAAUAUUACGCUGG	-3.55 ± 0.19	-2.52 ± 0.19
CCCAAGCAAUAUUACGGCCC	-2.39 ± 0.47	
CCCAAGCAAUAUUACGGCCG	-2.73 ± 0.19	-2.43 ± 0.21
CCCAAGCAAUAUUACGGCUG	-4.22 ± 0.23	-2.69 ± 0.16
CCCAAGCAAUAUUACGGGUA	-4.37 ± 0.28	-2.81 ± 0.16
CCCAAGCAAUAUUACGGUAU	-4.33 ± 0.23	-2.51 ± 0.21
CCCAAGCAAUAUUACGUACC		-1.82 ± 0.28
